Assay results: IntAct's records for PubMed 11356191

Molecular target: ptn13_human PTPN13 (UniProt Q12923)
Sequence (Q12923 whole entry): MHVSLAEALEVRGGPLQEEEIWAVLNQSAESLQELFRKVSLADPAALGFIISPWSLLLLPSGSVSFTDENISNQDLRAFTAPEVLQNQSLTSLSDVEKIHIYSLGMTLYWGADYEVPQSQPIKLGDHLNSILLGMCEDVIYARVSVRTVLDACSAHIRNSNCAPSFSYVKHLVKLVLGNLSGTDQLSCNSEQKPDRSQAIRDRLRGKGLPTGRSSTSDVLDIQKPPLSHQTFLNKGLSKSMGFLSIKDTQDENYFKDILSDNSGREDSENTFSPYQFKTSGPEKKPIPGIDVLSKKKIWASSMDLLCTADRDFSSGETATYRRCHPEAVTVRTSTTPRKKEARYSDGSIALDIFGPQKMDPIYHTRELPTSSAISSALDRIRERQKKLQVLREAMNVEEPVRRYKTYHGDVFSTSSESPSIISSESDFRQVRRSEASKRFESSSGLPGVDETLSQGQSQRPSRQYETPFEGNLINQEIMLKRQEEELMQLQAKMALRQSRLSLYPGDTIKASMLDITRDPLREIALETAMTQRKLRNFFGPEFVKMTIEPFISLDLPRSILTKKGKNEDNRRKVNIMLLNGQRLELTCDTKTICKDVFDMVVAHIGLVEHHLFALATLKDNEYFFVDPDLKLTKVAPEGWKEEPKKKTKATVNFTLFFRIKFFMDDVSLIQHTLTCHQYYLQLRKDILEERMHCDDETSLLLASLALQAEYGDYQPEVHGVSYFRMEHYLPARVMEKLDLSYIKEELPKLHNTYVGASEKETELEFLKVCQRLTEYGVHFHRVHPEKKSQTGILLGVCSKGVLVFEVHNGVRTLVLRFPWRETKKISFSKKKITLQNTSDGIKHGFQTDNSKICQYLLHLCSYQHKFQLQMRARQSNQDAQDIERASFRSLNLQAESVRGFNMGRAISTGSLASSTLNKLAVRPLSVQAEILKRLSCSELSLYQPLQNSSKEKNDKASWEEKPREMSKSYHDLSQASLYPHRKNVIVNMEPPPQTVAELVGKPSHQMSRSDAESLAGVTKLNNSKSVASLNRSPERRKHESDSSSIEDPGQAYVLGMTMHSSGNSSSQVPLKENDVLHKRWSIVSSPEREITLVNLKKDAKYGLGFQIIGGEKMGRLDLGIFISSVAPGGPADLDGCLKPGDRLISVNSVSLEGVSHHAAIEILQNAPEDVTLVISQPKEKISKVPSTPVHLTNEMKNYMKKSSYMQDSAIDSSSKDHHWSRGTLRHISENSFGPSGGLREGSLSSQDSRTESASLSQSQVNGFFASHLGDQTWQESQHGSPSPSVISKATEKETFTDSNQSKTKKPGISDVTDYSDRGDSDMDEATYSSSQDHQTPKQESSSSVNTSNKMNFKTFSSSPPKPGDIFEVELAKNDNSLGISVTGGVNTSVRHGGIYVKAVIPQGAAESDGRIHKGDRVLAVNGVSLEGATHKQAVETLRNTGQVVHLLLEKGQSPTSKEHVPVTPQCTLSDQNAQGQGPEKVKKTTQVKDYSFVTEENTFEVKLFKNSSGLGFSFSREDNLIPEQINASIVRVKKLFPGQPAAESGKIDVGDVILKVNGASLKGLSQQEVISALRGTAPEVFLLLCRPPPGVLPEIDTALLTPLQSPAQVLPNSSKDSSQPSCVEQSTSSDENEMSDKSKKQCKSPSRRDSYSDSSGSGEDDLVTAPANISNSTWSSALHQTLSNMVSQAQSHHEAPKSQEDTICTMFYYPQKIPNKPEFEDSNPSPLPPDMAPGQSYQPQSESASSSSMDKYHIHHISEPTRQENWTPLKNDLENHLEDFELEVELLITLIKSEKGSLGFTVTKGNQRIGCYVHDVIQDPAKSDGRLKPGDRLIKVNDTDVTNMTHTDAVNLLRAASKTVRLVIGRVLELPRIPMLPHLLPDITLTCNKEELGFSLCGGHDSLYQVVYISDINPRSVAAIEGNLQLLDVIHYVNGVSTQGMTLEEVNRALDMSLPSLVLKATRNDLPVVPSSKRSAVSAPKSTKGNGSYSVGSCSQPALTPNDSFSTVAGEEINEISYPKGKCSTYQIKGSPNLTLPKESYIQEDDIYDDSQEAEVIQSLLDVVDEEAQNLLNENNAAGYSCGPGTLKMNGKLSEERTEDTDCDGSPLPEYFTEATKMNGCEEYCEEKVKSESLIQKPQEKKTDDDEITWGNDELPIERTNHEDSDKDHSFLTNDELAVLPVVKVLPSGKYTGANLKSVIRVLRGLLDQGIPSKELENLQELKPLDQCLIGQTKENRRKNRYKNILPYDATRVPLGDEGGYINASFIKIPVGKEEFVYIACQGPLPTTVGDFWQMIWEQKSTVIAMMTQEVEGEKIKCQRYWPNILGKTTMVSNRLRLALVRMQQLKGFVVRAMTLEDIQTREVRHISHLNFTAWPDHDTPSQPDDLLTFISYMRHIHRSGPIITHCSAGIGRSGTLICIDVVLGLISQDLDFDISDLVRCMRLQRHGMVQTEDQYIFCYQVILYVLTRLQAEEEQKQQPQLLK

effect of a mutation on the interaction: disrupting interaction
Substance: Serine/threonine-protein kinase N2 (Homo sapiens), Q16513 C984S
